Assay: yeast display, Sf9 membrane polyspecificity reagent, FACS + sequencing; frameworks hold sequencing errors
Summary of the method: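 A nanobody's polyreactivity label depends on the gate it was sorted from. Yeast display cells were stained with 10% biotinylated, detergent-solubilized Sf9 membrane reagent for 1 hour at 4 °C, enriched on streptavidin microbeads and sorted by FACS. The low and high (top ~1%) gates were set on anti-HA fluorescence for expression and streptavidin fluorescence for reagent binding.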

Row | Sequence | polyreactivity (PSR sort gate)
1 | QVQLQESGGGLVQAGGSLRQSYAASGYIFPSLAMGWYRQAPGKEREFVAAIGRGSTNNYADSVKGRFTISRDNAKNTAYQQMNSLKPEDTAVYYCAADASPLTRNLYWGQGTQVTVSS | low polyreactivity
2 | QVQLVESGGGLVQAGGSLRLTCAASGYIFYRYALGWYRKAPGKERELVAAINSGGSTYYADSVKGRFTISRDNAKNTVYLQMNSLKPEDTAVYYCNVLGWWHVWVYDYWGQGTQVTVSS | high polyreactivity
3 | QVQLVESGGGLVQAGGSLRLSCAASGRTFKSYAMGWYRQAPGKERELVAAISRSSGSTYYADSVKGRFTISRDNAKNTVYLQMNSLKPEDTAVYYCATTKRVGYNYWGQGTQVTVSS | high polyreactivity
4 | QVQLVESGGGLVQAGGSLRLSCAASGSTFLSYAMGWYRQAPGKERELVAAISWSDVNTYYADSVKGRFTISRDNAKNTVYLQMNSLKPEDTAVYYCNARYYLYWGQGTQVTVSS | low polyreactivity
5 | QVQLVESGGVLVQAGGSLRLSCAASGRIFGDNAMGWYRHAPGKERELDADIDSGGRTNYADSVKVRFTISLDNAKNTVYLQMNSLKPEDTAVYYCGRDDIAYLVEYDYWGQGTQVTVSS | low polyreactivity
6 | QVQLVESGGGLVQAGGSLRLSCAASGSIFIRNAMGWYRQAPGKERELVAANSGSGSSTYYADSVKGRFTNSRDNAKNTVYLQMNSVKPEDTAVYYCNTDRTLSYQYGGYDYWGLGTQVTVSS | low polyreactivity
7 | QVQLVESGGGLVQAGGSLRLSCAASGRIFVSNTMGWYRQAPGKERELVAVIRTDSGSTYYADSVKGRFTISRDNAKNTVYLQMNSLKPEDTAVYYCAKVAYFASYRTGFYYWGQGTQVTVSS | high polyreactivity
8 | QVQLVESGGGLVQAGGSLRLSCAASGITFKSYAMGWYRQAPGKERELVAAISRRGGSTYDADSVKGRFTISRDNAKNTVYLQMNSLKPEDTAVYYCNAAVGYYSYSYYTKVGVDYLGQGTQVTVSS | high polyreactivity
9 | QVQLVESVGGLVQAGGSLRLSCADSGFTIYSYAMGWYRQAPGKERELVAAITQSGGSTYYADSVKGRFTISRDNAKNTVYLQMNSLKPEDTAVYYCAAVIYIDYDYGYYYWGQGTQVTVSS | low polyreactivity
10 | QVQLVESGGGLVQAGGSLRLSCAASGSIFRKYTMGWYKQAPGKERELVAAISGTAGRTYYADSVKGRFTISRDNAKNTVYLKMNSLKPEDTAVYYCAALRFGGYGYNYWGQGTQVTVSS | high polyreactivity
11 | QVQLVESGGGLVQAGGSLRLSCAASGRTFRINTMGWYRQAPGKERELVATITGSGGSTYYADSVKGRFTISRDNAKNTVYLQMNSLKPEDTAVYYCAVRWYDQVSRRGIGYYWGQGTQVTVSS | low polyreactivity
12 | QVQLVESGGGLVQAGGSLRLSCDASGAIFFSYAMRSYREAPGKERELVATITAGGGSTNYADSVKGRFTISRDNAKNTVYLQMNSLKAEDTAVYYSAAKRLSWHRYGYWGQGSQVTVSS | low polyreactivity
13 | QVQLVESGGGLVQAGGSLRLSCAASGITFHKYAMGWYRQAPGKERELVAAISSGGGTYYADSVKGRFTISRDNAKNTVYLQMNSLKPEDTAVYYCNADIEWLWVRYDYWGQGTQVTVSS | high polyreactivity
14 | QVQLVESAGGLDQAGGSLPLSCAASGRIFRYNAMGWYRQAPGKERELVSAITWNGASTFYADSVKGRFTISRDNAKNSVYLLMNSLKPEDTAVYYCAYVRDFSGYWLWSYNLYDYWGQGTKVTVSS | high polyreactivity
15 | QVQLVESGGGLVQAGGSLRLSCAASGGIFPYYVMGWYRQAPGKERELVAAINSGGTTYYADSVKGRFTISRDNAKNTVYLQMNSLKPEDTAVYYCAAYYAGFGYNYWGQGTQVTVSS | low polyreactivity
16 | QVQLVESGGGLVQAGGSLRLSCAASGSTFTFYTMGWYRQAPGKERELVAAITISAGSTYYADSVKGRFTFSRDNAKNTVYLQMNSLKPEDSAVYYCAADTYAHWGYYGSYYRDDYWGQGTQVTVSS | low polyreactivity
17 | QVQLVESGGGLVQAGGSLRLSRAASGRTFYFNAMGWYRQAPGKERELVAGISGDGSTNYADSVKGRFTISRDNAKNTVYLQMNSLKPEDTAVYYCAKTLGSQNYDFDYWGQGTQVTVSS | low polyreactivity
18 | QVQLEESGGGLVQAGGSLRLSCAASGRIFPINTMGWYRQAPGKERELVAAISSNGGRTYYADSVKGRFTISRDNAKNTVYLQMNSLKPEDTAVYYCAADAGYYWPGYYYWGQGTQVTVSS | high polyreactivity
19 | QVQLVESGGGLVQAGGSLRLSCAASGSTFPPYAMGWYRPAPGKGRELVAAISYRDTGTYYADSVKGRFTISRDNAKNTVYLQMNSLKPEDTAVYYCAADYLIVYYFLYYYWGQGTPVTVSS | low polyreactivity
20 | QVQLVDSGGGLVHAGGSLRLSCHASGRTFRGNAMGWYRQAPGKESELVAAITRRTASTYYADSVKGRFTISRDNAKNTVYLQMNSLKPEDTAVYDCAADSYMKRPYYAGYYYWGQGTQVTVSS | high polyreactivity
21 | QVQLVESGGGLVQAGGSLRLSCAASGNIFYVYVMGWYRQAPGKERELVASITSGASTYYADSVKGRFTISRDNAKNTVYFQMNSLKPEDTAVYYCAAEALGGAGDYSTLYIYDYWGQGTQVTVSS | low polyreactivity
22 | QFQLVESGGGLVQAGGSLRLSCAASGSIFYRNAMGWYRQAPGKERELVAAISRRGGSTYYADSVKGRFTISRDNAKNTVYLQMNSLKPEDTAVYYCATDGSTSKLVTVAYDYWGQGTQVTVSS | high polyreactivity

Row | Sequence | polyreactivity (PSR sort gate)
23 | QVQIVESGGGLVQAGGSLRLSCAASGSIFSDYVMGWYRQAPRKERELVATISRGGGSTFYADSVKGRFTISRDYAKITVYLQMNSLKPEDTAVYYCAAPPGPSGAKYDYWGQGTQVSVSS | low polyreactivity
24 | QDQLVESGGGLVQAGGSLRLSCAASGSIFRVYAMGRYRQAPGKERELVAAISSIVGSTYYADSVKGRFTISRDNAKNSVYLQMNSLKPEDTAVYDCNKEGTWPRTGSEYDSWGQGSQVTVSS | low polyreactivity
25 | QVQLVESGGGLDQAGGSLRLSCAASGFTFPIYAMGWYRQAPGKERELVAAITTRGGRTYYADSVKGRFTISRDNAKNTVYLQMNSLKPEDTAVYYCNAQGYAYRLWFGYWGQGTQVTVSS | high polyreactivity
26 | QVQLVESGGGLVQAGGSLRLSCAASGRTFRGYAMGWYRQAPGKERELVATISSRGGSTYYADSVKGRFTISRDNAKNTVYLQMNSLKPEDTAVYYCAARYIGYSSYKYDYWGQGTQVTVSS | high polyreactivity
27 | QDQLVESGGGLVQAGGSLRISCAASGGTFKSYAMGWYREAPGKERELVATITRDGRTNYADSVKGRFTISRDNAKNTVYLQMNSLKPEDTAVYYCNADYWSVWIALEFTVDYWGQGTQVTVSS | low polyreactivity
28 | QVQHEESGGGLVQAGGSLRLSCAASGLILFYNDMGWYRQAPGNERELVSVITSGGRTYYADSVKGRFTISRDIAKNTVYLQMNSLKPEDTAVYYCAATYGHPTTYCEGWRYGYWGQGTQVTVSS | low polyreactivity
29 | QLQLVESGGGLVQAGGSLRLSCAASGSIFNQYAMGWYRQAPGKERELVAAISSGSTYYADSVKGRFIISRDNAKNTVYLQMFSLKPEDTAVYYCAAGRNRRSSGIYVSKYWGQGTQETVSS | high polyreactivity
30 | QVQLVESGGGLVQAGGSLRLSSAASGSTFGYNAMGRYRPAPGKERELVAAISRSGGSTSNADSVMGRFTISRDNANNTVYLQMNSLKPEDTAVYYCAARYYKERYWGQGTQVTVSA | low polyreactivity
31 | QVQLVESGGGLVQAGGSLRLSCAASGRIFYINDMGCYRQAPGKEREFVASITGSGGRTYYADSVKGRFTISRDNAKNTVYLQMNSLKPEDTAVYYCNADLYVGYLYYLYDYWGQVTQVTVSS | low polyreactivity
32 | QVQLVESGGGLVQAGGSLRLSCAASGSIFWGNAMGWYRQAPGKERELVAAIRRGTSTYYADSVKGRFTISRDNAKNTVYVQMNSLKPEDTAVYYCAASPFRYVYHFDYWGQGTQVTVSS | high polyreactivity
33 | QVQLVESGGGLVQAGGSLRLSCAASGSIFTPNAMGWYRQAPGKERELVAAISSSSDRTSYADSVKGRFTISRDNAKYTVYLQMNSLKPEDTAVYYCAAYSQKRYYWGQGTQVTVSS | high polyreactivity
34 | QVQLVESGGGLVQAGGSLRLSCAASGITFRGNAMGWYRQAPGKERELVAAISRRGGNTNYADSVKGRFTISRDNAKNTVYLQMNSLKPEDTAVYYCAADITTYRRGRYEYEYWGQGTQVTVSS | high polyreactivity
35 | QVQLVESGGGLVQAGGSLRLSCAASGSTFKYYAMGWYRQATGKERELLAAITWRGGSTYYADSVKGRFTISRDNAKNSVYLLMKSLKPEDTAVYYCARQRYYGLRTLMEHWGQGTQVTVSS | high polyreactivity
36 | QVQLVESGGGLVQAGGSLRLSCAASGLTFVFYAMGWYRQSPGNERELVAAISWSTGRTYYADSVKGRFTISRDNAKNTVYLQMNSLKPEDTAVFYCGASFLGRKYDYWGHGTQVTVSS | high polyreactivity
37 | QVQHVESGGGLVQAGGSLRISCAASGSILDGYAMGWYRQAPGKEREFVAAITWSGGRTYYADSVKGRFTISRDNAMNTVYLQMNSLKPEDTAVYYCIAVTGSWRYDFWGQGSQVTVSS | high polyreactivity
38 | QVQLVESGGGLVQAGGSLRLSCAASGSIFKRNAMGWYRQAPGKERELVASISSGGSTHYADSVKGRFTISRDNAKNTVYLQMNSLKPEDTAVYYCAADSSWYVLYGSYYRSGLDYWGQGTQVTVSS | low polyreactivity
39 | QVQLVESGGGLVQAGGSLRLSCAASGSTFVPYVMGWYRQAPGKERELVAAISKSGTSTYYADSVKGRFTISRDNAKNTVYLQMNCLKPEDTAVYYCAAVARRQVPYDYWGQGTQVTVSS | high polyreactivity
40 | QVQLVESGGGLVQAGGSLRLSCAASGFTFYYYAMGWYRQAPGKERELVAAINWSGGTTYYADSVKGRFTISRDNAKNTVYLQMNSLKPEDTAVYYCAVSVFTVAPYRRYDYWGQGTQVTVSS | high polyreactivity
41 | QVHLVESGGGLVQAGGILRVSCAASGRIFRTYVMGWYRQAPGKERELVAAITQRGGTTYYADSVKRRFTISRDNAKNTVYLQMNSLKPEDTAVYYCATRYRYYTERDYWGLGTQVTVSS | high polyreactivity
42 | QVQLVESGGGLVQAGGSLRLSCAASGRIFDSNDMGWYRQAPGKEREFVAAITSSGGSTYYADSVKGRFTISRDNAKNTVYLQMNSLKPEDTAVYYCAARVYPRPQSYDKRYYWGQGTQVTVSS | low polyreactivity
43 | QVQLVESGGGLVQAGGSLLLSCAASGRTFILNAMGWYRQAPGKERELVAAISWSGGSTYYADSVKGRFTISRDKSKNTVYLQMNSLKPEDPAVYYCAAETYAYLFHTYDYGGQGTQVTVSS | low polyreactivity

Source: the nanobody polyreactivity screen of Harvey et al. (2022)
